{"source": "patent US6340783B1", "about": "“Rodent models of human amyloidoses” (University of Washington, priority 1992, dated 2002)", "key": {"BAP (1-28)": {"molecular_target": "T1, BAP (1-28) (Homo sapiens, UniProt P05067)", "T1 construct": "residues 1-28 of BAP or residues 597-624 of BAPP; purchased Bachem Inc., Torrance, Calif; host or cells: synthetic peptide", "assay": "Solid phase binding assay, Scatchard analysis of 125I-BAP (1-28) binding to high Mr HSPG", "procedure": "Nitrocellulose coated wells were incubated overnight at room temperature with 100 μl of TBS containing 1.5 μg (with 0.28 μg binding to the well) of high Mr HSPG. Wells were blocked overnight at room temperature with 200 μl of 5% non-fat dried milk. After blocking, wells were rinsed 3 times with 200 μl of TBS. Various quantities of ^125I-BAP (1-28) (specific activity=6,683 cpm/pm) diluted in 100 μl of TBS/0.05% Tween 20 was added in triplicate to wells and incubated for 2.5 hours at room temperature on an orbital shaker. At the end of the incubation period, free ^125I-BAP was removed from each well and transferred to scintillation vials for counting. In addition, each well was washed 6 times with 200 μl of TBS/0.05% Tween 20, and the wash was added to each of the same scintillation vials described above, to determine the total “free” 125I-BAP fraction for each well. Bound ^125-BAP was extracted from wells by incubation with 100 μl of 1N NaOH at room temperature for 1 hour, and quantitated by liquid scintillation counting. Recovery of ^125I-BAP as free and bound radioactivity exceeded 90%. […] Bars indicate standard error of the mean.\n^125I-HSPG (specific activity=1,104 cpm/ug) isolated from EC culture media was used to determine the amount of HSPG which bound to microtiter wells. Polyvinyl microtiter wells were coated with 100 μl of nitrocellulose solution (Schleicher and Schuell) (10 cm^2 of BA85 nitrocellulose in 10 ml of methanol) and allowed to dry at room temperature for 4 hours. Wells were coated overnight at room temperature with unlabeled HSPG to give 0.12 μg or 0.28 μg of bound-HSPG per well, and blocked overnight at room temperature with 200 μl of 5% non-fat dried milk (Carnation Co., Los Angeles, Calif.). Various quantities of 125I-BAP (residues 1-28) (specific activity=6,683 cpm/pm) diluted in 100 μl of TBS/0.05% Tween 20 were added in triplicate to wells and incubated for 2.5 hours at room temperature on an orbital shaker. At the end of the incubation. period, free ^125I-BAP was then removed with 6 washes of TBS/0.05% Tween 20. Bound ^125I-BAP was extracted from wells by incubation with 100 μl of 1N NaOH at room temperature for 1 hour, and “bound” versus “free” radioactivity was quantitated by liquid scintillation counting. Recovery of ^125I-BAP as free and bound radioactivity exceeded 90%. A set of controls using 5% BSA-coated wells was also included in all experiments.\nTo quantitate the interaction between the high Mr HSPG and BAP (1-28), 0.12 μg or 0.28 μg of the HSPG (isolated from the culture media of ECs; see FIG. 9B, lane 1) were immobilized on nitrocellulose coated wells and incubated with increasing concentrations of ^125I-BAP."}, "BAP (residues 1-28)": {"molecular_target": "T2, BAP (residues 1-28) (Homo sapiens, UniProt P05067)", "T2 construct": "residues 1-28 of BAP or residues 597-624 of BAPP; purchased Bachem Inc., Torrance, Calif; host or cells: synthetic peptide", "assay": "Affinity column chromatography of labeled proteoglycans on BAP (1-28) Affi-gel 10 column", "format": "binding", "procedure": "Approximately 500,000 dpm of ^35S-sulfate labeled PGs isolated from the culture media of ECs were applied to Affi-gel 10 affinity columns containing approximately 0.45 mg of 1) residues 1-28 of BAP, 2) residues 410-429, a region of BAPP present in the extracellular domain, or 3) bovine serum albumin. The labeled PGs were left on the column for 1 hour, after which non-bound radiolabelled PGs were eluted with 25 ml (50 0.5 ml fractions) of TBS+0.1% TX-100 and collected on a fraction collector. Bound PGs were then eluted from the column with 15 mls of 4M MgCl2 in TBS+0.1% TX-100.\n0.5 mg or 1.0 mg of ligands consisting of 1) BAP (1-28) (Bachem Inc., Torrance, Calif.), 2) a peptide corresponding to residues 410-429 of the BAPP (gift of Dr. Dennis Selkoe, Boston, U.S.A.) or 3) bovine serum albumin (BSA fraction V, Boehringer, Mannheim Biochemical) were dissolved initially in 400 μl of double distilled water to which was added an equal volume of 0.2 M HEPES buffer (pH 7.5) containing 160 mM calcium chloride. The ligand solutions were added to 0.8-1.0 ml of Affi-gel 10 (Biorad, Richmond, Calif.) and coupling was allowed to proceed for 4 hours at 4° C., after which 1/10 volume of IM ethanolamine (pH 8.0) was added and incubation continued for an additional 1-2 hours to block remaining unreacted ester groups. Gel coupled ligand was then transferred to Biorad Econo-columns and washed with TBS in 0.1% Triton-X 100. To assess the amount of bound ligand, soluble (nonbound) protein remaining in the wash buffer was assayed. The affinity columns coupled approximately 90% of ligand initially applied (i.e. 0.45 mg or 0.90 mg).\n^35S-sulfate labeled PGs isolated from the culture media (360,000 dpm) of ECs and SMCs were applied to Affi-gel 10 columns containing 1) BAP (residues 1-28), 2) BAPP (residues 410-429) or 3) Bovine serum albumin. The labeled PGs were allowed to interact with the affinity gel for 1 hour (preliminary experiments indicated maximum binding efficiency at 1 hour) and non-bound radiolabelled PGs were eluted with 25 ml of TBS+0.1% Triton X-100 (TBS-TX 100). Bound PGs were eluted with either a single-step gradient using 15 mls of 4M MgCl2 in TBS-TX 100 or a linear gradient of 0 to 4M MgCl2 in TBS-TX 100. In some experiments, columns were further eluted with 15 ml of 8M urea in 50 mM Tris-HCl (pH 7.5), with 0.5% Triton X-100 and 3M NaCl. The radioactivity per fraction was determined by scintillation counting. Most experiments were repeated a minimum of three times. Recoveries of applied radioactivity from the affinity columns ranged from 80-95%."}, "mutated β/A4 (1-28)": {"molecular_target": "T3, mutated β/A4 (1-28) (Homo sapiens, UniProt P05067, H684G/H685G/K687G)", "T3 construct": "residues 1-28 of BAP or residues 597-624 of BAPP", "assay": "Affinity column with β/A4 (1-28) mutated in the putative heparin binding domain", "conditions": "histidine, histidine and lysine changed to glycine; versus normal β/A4 (1-28) column", "excerpt": "As described above, residues 12-17 of the β/A4 (-valine-histidine-histidine-glutamine-lysine-leucine-) conform to a consensus sequence for a potential heparin/heparan sulfate binding domain. This has been recently confirmed by our studies, whereby comparisons were made using column affinity chromatography. One affinity column contained β/A4 (1-28), whereas the other affinity column contained β/A4 (1-28) with three amino acid substitutions of the putative heparin binding domain (i.e. the basic amino acids histidine, histidine and lysine where changed to glycine, and therefore were now uncharged instead of basic amino acids). ^125I-HSPG bound with high affinity to normal β/A4 (1-28) affinity column, whereas a 50-60% decrease in HSPG binding to the mutated β/A4 (1-28) was observed."}}, "note": "Entries after “also recorded” stand apart in the source; their conditions may differ. Read-outs that look alike come from different tables or passages of the source.", "data": [{"substance": "high Mr HSPG: ˜600-800 kDa heparan sulfate proteoglycan isolated from culture media of bovine aortic endothelial cells", "values": [{"measurement": "Kd", "setting": "BAP (1-28); 125I-BAP (1-28), Scatchard analysis, HSPG on nitrocellulose coated wells, read-out: Kd of the high affinity binding site", "result": 0.083, "unit": "nM"}, {"measurement": "Kd", "setting": "BAP (1-28); 125I-BAP (1-28), Scatchard analysis, HSPG on nitrocellulose coated wells, read-out: Kd of the low affinity binding site", "result": 42, "unit": "nM"}, {"measurement": "moles of BAP bound by 1 mole of HSPG", "setting": "BAP (1-28); assuming molecular weights of 700,000 and 2,800", "result": "~1.8", "unit": "mol"}, {"measurement": "Kd", "setting": "BAP (1-28); binding to BAP/β/A4 (1-28), read-out: Kd of the low affinity binding site (unit inferred)", "result": 42, "unit": "nM"}, {"measurement": "binding to BAP (1-28) affinity column", "setting": "BAP (residues 1-28)", "result": "strong binding; also recorded: bound tightly"}, {"measurement": "eluent that removed most bound PGs from BAP column", "setting": "BAP (residues 1-28); after 0 to 4M MgCl2 gradient and 4M MgCl2 wash", "result": 8, "unit": "M urea+3M NaCl"}, {"measurement": "binding to BAP (1-28) affinity column", "setting": "BAP (residues 1-28); listed as 125I-HSPG", "result": "high affinity"}, {"measurement": "decrease in HSPG binding to mutated β/A4 (1-28)", "setting": "mutated β/A4 (1-28)", "result": "50-60%"}]}]}
